This is an account of results in publication PMC8559680, “Dynamics in Fip1 regulate eukaryotic mRNA 3′ end processing” (Genes & Development, 2021).

B2: Fip1_(226) (Fip1 residues 1–226), purified from E. coli (domain or fragment, yeast, UniProt P45976 1-226, looked up)
chain: MSSSEDEDDKFLYGSDSELALPSSKRSRDDEADAGASSNPDIVKRQKFDSPVEETPATARDDRSDEDIYSDSSDDDSDSDLEVIISLGPDPTRLDAKLLDSYSTAATSSSKDVISVATDVSNTITKTSDERLITEGEANQGVTATTVKATESDGNVPKAMTGSIDLDKEGIFDSVGITTIDPEVLKEKPWRQPGANLSDYFNYGFNEFTWMEYLHRQEKLQQDYNP
notes: Isotopically labelled (15N, 13C, 2H) where it is the observed species in NMR; cloned in pET28a+; also called Fip226; source: E. coli BL21 Star, purified (Ni-NTA, TEV cleavage, Superdex 75); not shown: His tag, N-terminal, cleaved

Test [1] deals with B2. The test can be described thus: NMR titration; 15N-labelled Yth1 construct with unlabelled Fip1_(226), equimolar, 75 µM; chemical shift perturbations and line broadening; 700 MHz, 298 K, 50 mM HEPES (pH 7.4), 150 mM NaCl. Conditions: both partners purified.
For test [2], the target named is Yth1ZF4 (Yth1 zinc finger 4) (yeast) (UniProt Q06102). The test can be described thus: ITC; MicroCal iTC200, 25°C, 50 mM HEPES (pH 7.4), 150 mM NaCl; single class-binding site model. A general note: In ITC the heat of successive injections is recorded.
Test [3] concerns the target T1, CPFΔFip1 (recombinant CPF lacking Fip1; Pap1 also absent) (yeast, UniProt Q06632 1-1357; P42841 1-465; Q06102 1-208; Q12102 1-859; Q06224 1-779; P35728 …).
T1 construct: Cft1, yeast; as m20; Pfs2, yeast, untagged; as m19; Yth1, yeast, untagged; as m12; Cft2, yeast; as m21; Ysh1, yeast; as m22; Mpe1, yeast; as m23; Pta1, yeast; as m24; Ssu72, yeast; as m25; Pti1, yeast; as m26; Glc7, yeast; as m27; as m28; Swd2, yeast; as m29; Twelve subunits: Fip1 was omitted from the CPFcore construct and Pap1, though co-expressed, was absent from the purified complex; source: …
Briefly: mass photometry; Refeyn One iSCAT; samples diluted to 100 nM in 50 mM HEPES (pH 7.4), 150 mM NaCl. Particulars: both partners purified.

B1: Yth1_(ZF45C) (Yth1 residues 118–208) (domain or fragment, yeast, UniProt Q06102 118-208, looked up)
chain: ASKIPKCENYEMGFCPLGSSCPRRHIKKVFCQRYMTGFCPLGKDECDMEHPQFIIPDEGSKLRIKRDDEINTRKMDEEKERRLNAIINGEV
notes: Yth1, yeast, zinc fingers 4 and 5 and the rest of the C-terminal region, residues 118–208; 15N- or 13C,15N-labelled where it is the observed species in NMR; cloned in pGEX6P-2; also called entire C-terminal half of Yth1; source: E. coli BL21 Star, purified (GST resin, 3C cleavage, Superdex 75); not shown: GST, N-terminal, cleaved
Take B1: the binding result in test [1] is listed as “binds”.
On to B2, for which the Kd (in general, the equilibrium constant for the complex coming apart) in test [2] turned out to be 240 nM. For the same molecule, in test [3], the binding result is on record as “binds”.
